Tests used:
[1] = biological target: SAF-2 (Siglec-8 / Siglec-8L) on the cell surface (human) (UniProt Q9NYZ4); assay: cell-based or functional assay
[2] = biological target: T1, SAF-2 polypeptide (extracellular domain of sialoadhesin factor-2, released from SAF-2/Fc by Factor Xa … (human, UniProt Q9NYZ4 17-363)); assay: BIAcore SPR. The mAb was captured on a rabbit anti-mouse IgG Fc surface and SAF-2 was injected as analyte.
T1 construct: extracellular domain; The BIAcore analyte is printed only as 'SAF-2 (diluted in HBS buffer)'; Residues left over from the cleavage site are not described; also called Siglec-8
T1 sequence (Q9NYZ4 17-363): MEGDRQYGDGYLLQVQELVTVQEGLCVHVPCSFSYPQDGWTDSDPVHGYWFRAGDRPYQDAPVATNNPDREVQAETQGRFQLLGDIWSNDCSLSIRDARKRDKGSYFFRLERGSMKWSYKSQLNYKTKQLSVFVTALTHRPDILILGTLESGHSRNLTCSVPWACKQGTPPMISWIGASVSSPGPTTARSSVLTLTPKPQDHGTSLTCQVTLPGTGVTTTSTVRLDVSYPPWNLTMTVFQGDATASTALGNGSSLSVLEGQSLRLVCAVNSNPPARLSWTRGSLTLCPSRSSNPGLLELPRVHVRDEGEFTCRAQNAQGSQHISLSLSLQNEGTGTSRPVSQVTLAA
Description: (§1) Kinetic data was evaluated using relationships described previously (Karlsson, et al. (1991) J. Immunol. Meth. 145:229). The mAb (diluted in HBS buffer, 10 mM HEPES, 150 mM NaCl, 0.01% Tween-20, pH 7.4) was injected over a rabbit anti-mouse IgG Fe surface, followed by buffer flow, and the RU was recorded. SAF-2 (diluted in HBS buffer) was then injected for 180 seconds, followed by a buffer flow for 300 seconds, and the RU was recorded. The sensor chip surface was regenerated by an injection of 0.1 M phosphoric acid. The on-rates (Kₐ) and off-rates (Kd) of binding were calculated using BIAcore (Uppswala, Sweden) software.

[3] = biological target: T1, SAF-2 polypeptide (extracellular domain …); assay: BIAcore SPR. The mAb was captured on a rabbit anti-mouse IgG Fc surface and SAF-2 was injected as analyte. KD was calculated from the rates.
Description: as §1

Sequence of SAF-2 (Siglec-8 / Siglec-8L) on the cell surface (human) (Q9NYZ4 17-499): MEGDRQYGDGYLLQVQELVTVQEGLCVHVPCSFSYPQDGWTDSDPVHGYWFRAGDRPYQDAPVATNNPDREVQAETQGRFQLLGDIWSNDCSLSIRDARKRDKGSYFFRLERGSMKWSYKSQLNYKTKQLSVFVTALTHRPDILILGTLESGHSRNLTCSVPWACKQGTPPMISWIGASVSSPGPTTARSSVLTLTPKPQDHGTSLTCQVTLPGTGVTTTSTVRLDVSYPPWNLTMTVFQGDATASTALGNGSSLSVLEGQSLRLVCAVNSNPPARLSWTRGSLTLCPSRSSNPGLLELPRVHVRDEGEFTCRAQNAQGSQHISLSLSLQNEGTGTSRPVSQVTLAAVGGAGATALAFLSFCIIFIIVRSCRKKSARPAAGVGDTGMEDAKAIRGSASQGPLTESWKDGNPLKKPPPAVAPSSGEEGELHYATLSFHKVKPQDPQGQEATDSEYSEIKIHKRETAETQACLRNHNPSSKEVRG

apoptosis (annexin-V) of IL-5-primed eosinophils, 2E2 mAb alone [1] [%]	apoptosis (annexin-V) of unprimed eosinophils, 2E2 and secondary Ab [1] [%]	koff [2] [s⁻¹]	kon [2] [M⁻¹ s⁻¹]	Kd [3] [nM]	Binder	eosinophil death at 48-72 h of culture (erythrosin-B dye exclusion), 2E2 plus secondary polyclonal Ab [1] [%]	eosinophil death at 24 h of culture (erythrosin-B dye exclusion), 2E2 plus secondary polyclonal Ab [1] [%]
69	72	–	–	–	2E2 mAb (antibody, from another filing, V domains shown) VH: VQLKRASGPGLVAPSQSLSITCTVSGFSLTIYGAHWVRQPPGKGLEWLGVIWAGGSTNYNSALMSRLSISKDNSKSQVFLKINSLQTDDTALYYCARDGSSPYYYSMEYWGQGTSVTVSS VL: QIILTQSPAIMSASPGEKVSITCSATSSVSYMHWFQQKPGTSPKLWIYSTSNLASGVPVRFSGSGSGTSYSLTISRMEAEDAATYYCQQRSSYPFTFGSGTKLEIKA	> 90	68
–	–	4.3e-05	220000	0.2	monoclonal antibody 2C4 (antibody, IgG1, V domains shown, also called mAb 2C4) VH: QVQLKESGPGLVAPSQSLSITCTVSGFSLIYGAHWVRQPPGKGLEWLGVIWAGGSTNYNSALMSRLSISKDNSKSQVFLKINSLQTDDTALYYCARDGSSPYYYSMEYWGQGTSVTVSS VL: EIILTQSPAIMSASPGEKVSITCSATSSVSYMHWFQQKPGTSPKLWIYSTSNLASGVPVRFSGSGSGTSYSLTISRMEAEDAATYYCQQRSSYPFTFGSGTKLEIKR	–	–

From patent US20030092091A1 (GlaxoSmithKline, published 2003)
